This note sets out measurements from patent publication US7294706.

Assay [1] has as its target FGFR2 over-expressed on CHO cells (CHO-FGFR2) and on 32D cells (32D-FGFR2) (UniProt P21803). As to the kind of experiment: cell-based or functional assay.
Assay [2] has the same target. As to the kind of experiment: competition of unlabeled protein with 125I-FGF4 (Gly79-Leu206) for CHO-FGFR2 cells, +heparin.

B1: FGF4 (Gly79-Leu206) Y87A (ligand)
chain: GIKRLRRLACNVGIGFHLQALPDGRIGGAHADTRDSLLELSPVERGVVSIFGVASRFFVAMSSKGKLYGSPFFTDECTFKEILLPNNYNAYESYKYPGMFIALGKNGKTKKGNRVSPTMKVTHFLPRL
As to B1, in assay [1], the DNA Synthesis NIH 3T3 cells (ED50 mutant/ED50 wild-type), +heparin (ratio ED50 mutant/ED50 wild-type) was 500 and the DNA Synthesis NIH 3T3 cells (ED50 mutant/ED50 wild-type), -heparin (ratio ED50 mutant/ED50 wild-type) is > 500. Further, the IC50 mutant/IC50 wild-type (ratio (IC50 mutant/IC50 wild-type)) in assay [2] was > 100.

B2: FGF4 (Gly79-Leu206) E117A (ligand)
chain: GIKRLRRLYCNVGIGFHLQALPDGRIGGAHADTRDSLLALSPVERGVVSIFGVASRFFVAMSSKGKLYGSPFFTDECTFKEILLPNNYNAYESYKYPGMFIALGKNGKTKKGNRVSPTMKVTHFLPRL
On to B2, for which the IC50 mutant/IC50 wild-type (ratio (IC50 mutant/IC50 wild-type)) in assay [2] is 7.

B3: FGF4 (Gly79-Leu206) L203A (ligand)
chain: GIKRLRRLYCNVGIGFHLQALPDGRIGGAHADTRDSLLELSPVERGVVSIFGVASRFFVAMSSKGKLYGSPFFTDECTFKEILLPNNYNAYESYKYPGMFIALGKNGKTKKGNRVSPTMKVTHFAPRL
As to B3, in assay [1], the DNA Synthesis NIH 3T3 cells (ED50 mutant/ED50 wild-type), +heparin (ratio ED50 mutant/ED50 wild-type) is > 500 and the DNA Synthesis NIH 3T3 cells (ED50 mutant/ED50 wild-type), -heparin (ratio ED50 mutant/ED50 wild-type) was > 500. In addition, the IC50 mutant/IC50 wild-type (ratio (IC50 mutant/IC50 wild-type)) in assay [2] was > 100.

B4: FGF4 (Gly79-Leu206) F151A (ligand)
chain: GIKRLRRLYCNVGIGFHLQALPDGRIGGAHADTRDSLLELSPVERGVVSIFGVASRFFVAMSSKGKLYGSPFATDECTFKEILLPNNYNAYESYKYPGMFIALGKNGKTKKGNRVSPTMKVTHFLPRL
As for B4, the IC50 mutant/IC50 wild-type (ratio (IC50 mutant/IC50 wild-type)) in assay [2] was determined as 2.5.

B5: N-terminal truncated wild-type FGF4 (Gly79-Leu206) (ligand)
chain: GIKRLRRLYCNVGIGFHLQALPDGRIGGAHADTRDSLLELSPVERGVVSIFGVASRFFVAMSSKGKLYGSPFFTDECTFKEILLPNNYNAYESYKYPGMFIALGKNGKTKKGNRVSPTMKVTHFLPRL
Regarding B5, in assay [2], the IC50 mutant/IC50 wild-type (ratio (IC50 mutant/IC50 wild-type)) stood at 1.

B6: FGF4 (Gly79-Leu206) L162A (ligand)
chain: GIKRLRRLYCNVGIGFHLQALPDGRIGGAHADTRDSLLELSPVERGVVSIFGVASRFFVAMSSKGKLYGSPFFTDECTFKEILAPNNYNAYESYKYPGMFIALGKNGKTKKGNRVSPTMKVTHFLPRL
With B6, in assay [2], the IC50 mutant/IC50 wild-type (ratio (IC50 mutant/IC50 wild-type)) is > 1000.

B7: FGF4 (Gly79-Leu206) F129A (ligand)
chain: GIKRLRRLYCNVGIGFHLQALPDGRIGGAHADTRDSLLELSPVERGVVSIAGVASRFFVAMSSKGKLYGSPFFTDECTFKEILLPNNYNAYESYKYPGMFIALGKNGKTKKGNRVSPTMKVTHFLPRL
B7: in assay [1], the DNA Synthesis NIH 3T3 cells (ED50 mutant/ED50 wild-type), +heparin (ratio ED50 mutant/ED50 wild-type) was > 500 and the DNA Synthesis NIH 3T3 cells (ED50 mutant/ED50 wild-type), -heparin (ratio ED50 mutant/ED50 wild-type) is > 500. The IC50 mutant/IC50 wild-type (ratio (IC50 mutant/IC50 wild-type)) in assay [2] was > 100.

B8: FGF4 (Gly79-Leu206) Y166A (ligand)
chain: GIKRLRRLYCNVGIGFHLQALPDGRIGGAHADTRDSLLELSPVERGVVSIFGVASRFFVAMSSKGKLYGSPFFTDECTFKEILLPNNANAYESYKYPGMFIALGKNGKTKKGNRVSPTMKVTHFLPRL
As for B8, in assay [1], the DNA Synthesis NIH 3T3 cells (ED50 mutant/ED50 wild-type), +heparin (ratio ED50 mutant/ED50 wild-type) is > 500 and the DNA Synthesis NIH 3T3 cells (ED50 mutant/ED50 wild-type), -heparin (ratio ED50 mutant/ED50 wild-type) worked out at 500. The IC50 mutant/IC50 wild-type (ratio (IC50 mutant/IC50 wild-type)) in assay [2] was > 100.

B9: FGF4 (Gly79-Leu206) R205A (ligand)
chain: GIKRLRRLYCNVGIGFHLQALPDGRIGGAHADTRDSLLELSPVERGVVSIFGVASRFFVAMSSKGKLYGSPFFTDECTFKEILLPNNYNAYESYKYPGMFIALGKNGKTKKGNRVSPTMKVTHFLPAL
On to B9, for which, in assay [1], the DNA Synthesis NIH 3T3 cells (ED50 mutant/ED50 wild-type), +heparin (ratio ED50 mutant/ED50 wild-type) was 2.5 and the DNA Synthesis NIH 3T3 cells (ED50 mutant/ED50 wild-type), -heparin (ratio ED50 mutant/ED50 wild-type) was 25. Further, the IC50 mutant/IC50 wild-type (ratio (IC50 mutant/IC50 wild-type)) in assay [2] was determined as 2.5.

B10: FGF4 (Gly79-Leu206) E159A (ligand)
chain: GIKRLRRLYCNVGIGFHLQALPDGRIGGAHADTRDSLLELSPVERGVVSIFGVASRFFVAMSSKGKLYGSPFFTDECTFKAILLPNNYNAYESYKYPGMFIALGKNGKTKKGNRVSPTMKVTHFLPRL
As for B10, the IC50 mutant/IC50 wild-type (ratio (IC50 mutant/IC50 wild-type)) in assay [2] came out at 5.

B11: FGF4 (Gly79-Leu206) H201A (ligand)
chain: GIKRLRRLYCNVGIGFHLQALPDGRIGGAHADTRDSLLELSPVERGVVSIFGVASRFFVAMSSKGKLYGSPFFTDECTFKEILLPNNYNAYESYKYPGMFIALGKNGKTKKGNRVSPTMKVTAFLPRL
Take B11: in assay [2], the IC50 mutant/IC50 wild-type (ratio (IC50 mutant/IC50 wild-type)) was > 1000.
